These results are taken from paper PMC6992608, “A Single Step in vitro Bioassay Mimicking TLR4-LPS Pathway and the Role of MD2 and CD14 Coreceptors” (Frontiers in Immunology, 2020).

For this experiment, the target named is T1, Human recombinant toll like receptor 4 (rTLR4) (human, UniProt O00206 24-631).
T1 construct: toll like receptor 4 (TLR4), human, recombinant; No catalogue number or construct limits are printed; a soluble recombinant TLR4 is most likely the extracellular domain (surmised); also called MP-rTLR4; source: bought: R & D Systems
T1 sequence (O00206 24-631): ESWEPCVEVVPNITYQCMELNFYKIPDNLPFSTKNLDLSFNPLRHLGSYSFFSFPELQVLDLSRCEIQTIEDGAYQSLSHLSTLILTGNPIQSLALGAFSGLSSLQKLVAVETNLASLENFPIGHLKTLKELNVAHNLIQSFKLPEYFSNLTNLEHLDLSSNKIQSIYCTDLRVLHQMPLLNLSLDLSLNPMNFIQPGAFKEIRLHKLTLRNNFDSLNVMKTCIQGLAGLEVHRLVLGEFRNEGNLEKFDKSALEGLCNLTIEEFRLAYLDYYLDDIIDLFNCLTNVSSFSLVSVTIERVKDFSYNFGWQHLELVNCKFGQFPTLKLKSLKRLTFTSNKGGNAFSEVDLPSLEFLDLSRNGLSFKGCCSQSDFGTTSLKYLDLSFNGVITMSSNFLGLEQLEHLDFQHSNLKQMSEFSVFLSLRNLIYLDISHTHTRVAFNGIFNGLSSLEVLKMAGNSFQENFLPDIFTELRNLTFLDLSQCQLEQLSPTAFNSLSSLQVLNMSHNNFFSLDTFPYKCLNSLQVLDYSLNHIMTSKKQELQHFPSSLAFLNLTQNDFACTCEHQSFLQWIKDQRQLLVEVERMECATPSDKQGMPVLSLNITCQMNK
The experiment is described as follows: pull-down; rTLR4 held by its His tag on Ni-NTA magnetic beads; MD2 (Alexa Fluor 647), CD14 and LPS-Alexa Fluor 488 co-incubated in one tube in PBS pH 7.4 with 0.5% Tween 20 at RT; beads removed by magnet at 15, 30, 45, 60 and 90 min; unbound MD2 in the supernatant quantified by fluorescence, CD14 by silver staining. Conditions: both partners purified.

B1: Recombinant human myeloid differentiation-2 (MD2) protein (natural protein, UniProt Q9Y6Y9 19-160, looked up)
chain: QKQYWVCNSSDASISYTYCDKMQYPISINVNPCIELKRSKGLLHIFYIPRRDLKQLYFNLYITVNTMNLPKRKEVICRGSDDDYSFCRALKGETVNTTISFSFKGIKFSKGKYKCVVEAISGSPEEMLFCLEFVILHQPNSN
modifications: Alexa Fluor 647, on average 3 tags per MD2 molecule
notes: myeloid differentiation-2 (MD2, lymphocyte antigen 96), human, recombinant; No catalogue number is printed; source: bought: Abcam
Turning to B1, the “stoichiometry N” value is 1.
